± gives the standard deviation of the averaged measurements.
Tested on: ATP
Test: switch fluorescence ratio, 500 uM ATP over buffer (Cy3 cluster intensity, sum of 5 cycles each) (fold (ratio)); higher = stronger signal-on switching upon ATP binding; sequences stand for … in TCGTCGGCAGCGTCAGATGTGTATAAGAGACAGTTTTTTTTTTTTTTTTTTTTTTTTT…TC
Settings: aptamer strand: ATP DNA aptamer (quencher-CACCTGGGGGAGTATTGCGGAGGAAGG + anchor), 100 nM annealed; ATP concentration: 500 uM
How it was run: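 Five buffer/ATP imaging cycles were run on Cy3-labelled switching-strand clusters on a modified Illumina MiSeq flow-cell, with NaOH stripping and re-annealing between cycles. In each cycle, clusters annealed to 100 nM quencher-labelled ATP aptamer were imaged in selection buffer, then after 15 min with 500 uM ATP at 22 °C. Per cluster, the fluorescence ratio is summed target-cycle over summed buffer-cycle Cy3 intensity, averaged per switch-domain sequence. Only clusters within 100-1000 RFU were kept.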
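Also: ATP exposure 15 min at 22 °C before imaging.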

| Sequence | switch fluorescence ratio |
| --- | --- |
| TCCCGAAGAT | 1.03 ± 0.023 |
| TCCCGCGGCT | 1.08 ± 0.045 |
| TCCCGCTGGG | 1.17 ± 0.22 |
| TCCCGGTCCG | 1 ± 0.027 |
| TCCCTCCCCT | 1.25 ± 0.056 |
| TCCCTGGTAT | 1.04 ± 0.014 |
| TCCCTGTTGC | 1.09 ± 0.045 |
| TCCCTTTGGC | 1.01 ± 0.04 |
| TCCGAAAAAG | 1.33 ± 0.44 |
| TCCGAAATCA | 1.6 ± 0.48 |
| TCCGAAGGAA | 1.11 ± 0.042 |
| TCCGAATGCG | 1.11 ± 0.0041 |
| TCCGACGTAG | 1.19 ± 0.31 |
| TCCGAGGCCA | 3.91 ± 3.2 |
| TCCGAGGCGG | 2.131 ± 0.017 |
| TCCGAGGGCT | 1.59 ± 0.084 |
| TCCGAGTGAG | 1.13 ± 0.058 |
| TCCGATTGAA | 1.08 ± 0.011 |
| TCCGCAGAG | 6.2 ± 0.49 |
| TCCGCTTGTA | 1.39 ± 0.11 |
| TCCGCTTTTT | 1.1 ± 0.15 |
| TCCGGAGGGA | 1.04 ± 0.089 |
| TCCGGCGGTG | 1.03 ± 0.027 |

| Sequence | switch fluorescence ratio |
| --- | --- |
| TCCGGCTTTG | 0.953 ± 0.075 |
| TCCGGGAAAT | 2.88 ± 0.66 |
| TCCGGGAGGG | 1.02 ± 0.053 |
| TCCGGGATCC | 1.25 ± 0.04 |
| TCCGGGCCTT | 1.02 ± 0.09 |
| TCCGGGGGCA | 1.59 ± 0.027 |
| TCCGGGGTGG | 1.022 ± 0.0097 |
| TCCGGTTCCT | 1.07 ± 0.036 |
| TCCGGTTTTT | 1.07 ± 0.16 |
| TCCGTATATT | 1.103 ± 0.0024 |
| TCCGTGAGAT | 1.44 ± 0.047 |
| TCCGTGTGTG | 0.989 ± 0.0075 |
| TCCTCAGCGT | 3 ± 1 |
| TCCTGATGTT | 0.982 ± 0.046 |
| TCCTGATTGA | 0.984 ± 0.063 |
| TCCTGTGAAC | 1.04 ± 0.046 |
| TCCTGTGGGT | 0.99 ± 0.036 |
| TCCTGTTTTC | 0.987 ± 0.021 |
| TCCTTATAGG | 1 ± 0.044 |
| TCCTTCGGTT | 1.393 ± 0.0023 |
| TCCTTGTTTT | 1 ± 0.028 |
| TCCTTTAAAT | 1.13 ± 0.0032 |
| TCCTTTGGTT | 0.9865 ± 0.0034 |

| Sequence | switch fluorescence ratio |
| --- | --- |
| TCCTTTTTTA | 1.01 ± 0.015 |
| TCGAAAAAGG | 1.0045 ± 8.5e-06 |
| TCGAAAAATT | 0.975 ± 0.048 |
| TCGAAAATAT | 1.5 ± 1 |
| TCGAAAGTTA | 1.04 ± 0.022 |
| TCGAAGATGT | 0.996 ± 0.019 |
| TCGAAGGAAT | 1.24 ± 0.037 |
| TCGAAGGGCT | 1.016 ± 0.01 |
| TCGAAGGGGA | 0.971 ± 0.035 |
| TCGAATAATT | 1 ± 0.041 |
| TCGAATAGAT | 0.958 ± 0.04 |
| TCGAATATTT | 1.02 ± 0.073 |
| TCGACGGGGA | 1.1 ± 0.047 |
| TCGAGATGG | 0.97289 ± 7.7e-05 |
| TCGAGATTAT | 1.01 ± 0.027 |
| TCGAGCCTTT | 0.9909 ± 0.0014 |
| TCGAGGGGAA | 1.13 ± 0.15 |
| TCGAGGGGTT | 0.993 ± 0.011 |
| TCGAGGTTGC | 0.993 ± 0.025 |
| TCGAGTTCAG | 0.99 ± 0.021 |
| TCGATAATTA | 0.97 ± 0.09 |
| TCGATACATG | 0.993 ± 0.034 |
| TCGATAGTTG | 0.961 ± 0.054 |

| Sequence | switch fluorescence ratio |
| --- | --- |
| TCGATATATG | 1 ± 0.028 |
| TCGATATTTA | 0.982 ± 0.02 |
| TCGATCGCAT | 2.51 ± 2.2 |
| TCGATCGCTA | 1.43 ± 0.59 |
| TCGATCTGTG | 0.99652 ± 0.00045 |
| TCGATGTTGT | 0.987 ± 0.03 |
| TCGATTTTGG | 1 ± 0.029 |
| TCGCAGGGGG | 0.992 ± 0.043 |
| TCGCCATGAT | 0.999 ± 0.02 |
| TCGCCCGAGC | 1.09 ± 0.11 |
| TCGCCGTTCT | 0.99 ± 0.033 |
| TCGCGAGAGC | 1.004 ± 0.0057 |
| TCGCGCCCTG | 1.03 ± 0.043 |
| TCGCGGTTCT | 1.11 ± 0.085 |
| TCGCGTCTCA | 1.01 ± 0.046 |
| TCGCTATTTA | 1.033 ± 0.0085 |
| TCGCTGAAGC | 1.02 ± 0.013 |
| TCGCTTAATT | 1.02 ± 0.032 |
| TCGCTTCTCT | 1.76 ± 1 |
| TCGCTTTACT | 3.87 ± 0.81 |
| TCGGAAGACA | 1.01 ± 0.0069 |
| TCGGAAGGCT | 0.999 ± 0.089 |
| TCGGAAGGG | 0.988 ± 0.037 |

| Sequence | switch fluorescence ratio |
| --- | --- |
| TCGGAATATT | 1.09 ± 0.062 |
| TCGGAATTGT | 0.9992 ± 0.0056 |
| TCGGACGACC | 1.15 ± 0.12 |
| TCGGACTCGG | 0.963 ± 0.017 |
| TCGGACTGGG | 1.01 ± 0.022 |
| TCGGAGAGGG | 0.974 ± 0.037 |
| TCGGAGGAAG | 1.02 ± 0.012 |
| TCGGAGGCCT | 1.04 ± 0.04 |
| TCGGAGGTGT | 1.01 ± 0.027 |
| TCGGAGTAG | 1.04 ± 0.031 |
| TCGGATAGCT | 1.02 ± 0.014 |
| TCGGATAGTC | 1.01 ± 0.026 |
| TCGGATCCAA | 1.048 ± 0.0022 |
| TCGGATTGGA | 0.981 ± 0.028 |
| TCGGCACCAA | 1.05 ± 0.046 |
| TCGGCAGTGG | 1.03 ± 0.027 |
| TCGGCCATCG | 1 ± 0.016 |
| TCGGCGTATC | 0.979 ± 0.01 |
| TCGGCGTTCA | 1.02 ± 0.02 |
| TCGGCTCTTG | 1.013 ± 0.0046 |
| TCGGCTTGGC | 1.03 ± 0.086 |
| TCGGCTTGGG | 0.987 ± 0.02 |
| TCGGCTTTGG | 0.9639 ± 0.0093 |

| Sequence | switch fluorescence ratio |
| --- | --- |
| TCGGGAAGGT | 1 ± 0.023 |
| TCGGGAGTAT | 1.04 ± 0.03 |
| TCGGGATAGC | 1.08 ± 0.052 |
| TCGGGATGTT | 0.989 ± 0.027 |
| TCGGGCTGGG | 1.03 ± 0.0069 |
| TCGGGCTGTG | 1.02 ± 0.05 |
| TCGGGGACCG | 0.952 ± 0.052 |
| TCGGGGATGA | 1.067 ± 0.0092 |
| TCGGGGCGCG | 0.975 ± 0.061 |
| TCGGGGCGG | 0.992 ± 0.011 |
| TCGGGGCGGC | 1.02 ± 0.046 |
| TCGGGGCGGG | 1.01 ± 0.056 |
| TCGGGGGCGA | 1.13 ± 0.17 |
| TCGGGGGCGT | 1.03 ± 0.038 |
| TCGGGGGGG | 1.01 ± 0.016 |
| TCGGGGGGGC | 1.01 ± 0.072 |
| TCGGGGGGTC | 0.981 ± 0.043 |
| TCGGGGGTG | 1.01 ± 0.085 |
| TCGGGGGTGG | 0.988 ± 0.014 |
| TCGGGGTTTA | 0.994 ± 0.059 |
| TCGGGGTTTC | 1.05 ± 0.019 |
| TCGGGTAAAC | 1.03 ± 0.042 |
| TCGGGTAAGT | 1.01 ± 0.077 |

| Sequence | switch fluorescence ratio |
| --- | --- |
| TCGGGTACTG | 0.979 ± 0.093 |
| TCGGGTATGG | 1.01 ± 0.042 |
| TCGGGTCATG | 1.04 ± 0.04 |
| TCGGGTCCGC | 1.06 ± 0.046 |
| TCGGGTCGCG | 0.9948 ± 0.00097 |
| TCGGGTGAAC | 0.983 ± 0.041 |
| TCGGGTGGGA | 1.05 ± 0.058 |
| TCGGGTGGTG | 0.92 ± 0.16 |
| TCGGGTTGGT | 1.02 ± 0.061 |
| TCGGGTTTAT | 1 ± 0.037 |
| TCGGTAGCGA | 1.14 ± 0.17 |
| TCGGTCAAGG | 0.949 ± 0.02 |
| TCGGTCCTGC | 1 ± 0.024 |
| TCGGTCGCGG | 0.974 ± 0.028 |
| TCGGTCGTGC | 1.03 ± 0.034 |
| TCGGTGATGG | 0.988 ± 0.021 |
| TCGGTGTCTA | 0.985 ± 0.02 |
| TCGGTGTGCA | 0.985 ± 0.024 |
| TCGGTTAATA | 1.018 ± 0.0054 |

— the supplement of paper PMC10126150
